Laboratory results reported in patent US20240117018A1.

What was measured:
Experiment in all cases: cell-based or functional assay
[1] = biological target: HIV-1 Env pseudovirus P1981_C5_3 (HIV-1)
[2] = biological target: HIV-1 Env of pseudovirus 3415.v1.c1 (HIV-1)
[3] = biological target: HIV-1 Env of pseudovirus HIV-001428-2.42 (HIV-1)
[4] = biological target: HIV-1 Env pseudovirus X2088_c9 (HIV-1)
[5] = biological target: HIV-1 Env of pseudovirus REJO4541.67 (HIV-1)
[6] = biological target: HIV-1 Env pseudovirus 6952.v1.c20 (HIV-1)
[7] = biological target: HIV-1 Env pseudovirus 6480.v4.c25 (HIV-1)
[8] = biological target: HIV-1 Env of pseudovirus Ce1086_B2 (HIV-1)
[9] = biological target: HIV-1 Env pseudovirus A07412M1.vrc12 (HIV-1)
[10] = biological target: HIV-1 Env pseudovirus 620345.c01 (HIV-1)
[11] = biological target: HIV-1 Env of pseudovirus CNE20 (HIV-1)
[12] = biological target: HIV-1 Env pseudovirus C1080.c03 (HIV-1)
[13] = biological target: HIV-1 Env pseudovirus R1166.c01 (HIV-1)
[14] = biological target: HIV-1 Env of pseudovirus CNE52 (HIV-1)
[15] = biological target: Env of HIV-1 pseudovirus CNE30 (HIV-1)
[16] = biological target: Env of HIV-1 pseudovirus QH0692.42 (HIV-1)
[17] = biological target: Env of HIV-1 pseudovirus TRO.11 (HIV-1)
[18] = biological target: Env of HIV-1 pseudovirus Q23.17 (HIV-1)
[19] = biological target: Env of HIV-1 pseudovirus TRJO4551.58 (HIV-1)
[20] = biological target: Env of HIV-1 pseudovirus ZM249M.PL1 (HIV-1)
[21] = biological target: Env of HIV-1 pseudovirus Du156.12 (HIV-1)
[22] = biological target: Env of HIV-1 pseudovirus 7030102001E5(Rev-) (HIV-1)
[23] = biological target: Env of HIV-1 pseudovirus 6240_08_TA5_4622 (HIV-1)
[24] = biological target: Env of HIV-1 pseudovirus 1394C9G1(Rev-) (HIV-1)
[25] = biological target: Env of HIV-1 pseudovirus CNE17 (HIV-1)
[26] = biological target: Env of HIV-1 pseudovirus 263-8 (HIV-1)
[27] = biological target: Env of HIV-1 pseudovirus CNE52 (HIV-1)
[28] = biological target: Env of HIV-1 pseudovirus 1054_07_TC4_1499 (HIV-1)
[29] = biological target: Env of HIV-1 pseudovirus HIV-001428-2.42 (HIV-1)
[30] = biological target: Env of HIV-1 pseudovirus T257-31 (HIV-1)
[31] = biological target: Env of HIV-1 pseudovirus ZM247v1(Rev-) (HIV-1)
[32] = biological target: Env of HIV-1 pseudovirus WEAU_d15_410_787 (HIV-1)
[33] = biological target: HIV-1 Env of pseudovirus 0260.v5.c36 (HIV-1)

## 3BNC117 (antibody)
[1]
  IC50 (Titer in TZM.bl cells): 0.74 µg/mL
  IC80 (Titer in TZM.bl cells): 3.62 µg/mL
[2]
  IC50: 0.17 µg/mL
  IC80: 0.47 µg/mL
[3]
  IC50: 0.003 µg/mL
  IC80: 0.02 µg/mL
[4]
  IC50 (Titer in TZM.bl cells): > 50 µg/mL
  IC80 (Titer in TZM.bl cells): > 50 µg/mL
[5]
  IC50: 0.01 µg/mL
  IC80: 0.05 µg/mL
[6]
  IC50 (Titer in TZM.bl cells): 0.15 µg/mL
  IC80 (Titer in TZM.bl cells): 0.75 µg/mL
[7]
  IC50 (Titer in TZM.bl cells): 0.01 µg/mL
  IC80 (Titer in TZM.bl cells): 0.04 µg/mL
[8]
  IC50: 0.09 µg/mL
  IC80: 0.31 µg/mL
[9]
  IC50 (Titer in TZM.bl cells): 0.02 µg/mL
  IC80 (Titer in TZM.bl cells): 0.1 µg/mL
[10]
  IC50 (Titer in TZM.bl cells): > 15 µg/mL
  IC80 (Titer in TZM.bl cells): > 15 µg/mL
[11]
  IC50: > 50 µg/mL
  IC80: > 50 µg/mL
[12]
  IC50 (Titer in TZM.bl cells): 0.25 µg/mL
  IC80 (Titer in TZM.bl cells): 1.73 µg/mL
[13]
  IC50 (Titer in TZM.bl cells): 0.17 µg/mL
  IC80 (Titer in TZM.bl cells): 0.64 µg/mL
[14]
  IC50: 0.02 µg/mL
  IC80: 0.06 µg/mL

## PG16 (antibody)
[15]
  IC50: > 50 µg/mL
  IC80: > 50 µg/mL
[16]
  IC50: > 50 µg/mL
  IC80: > 50 µg/mL
[17]
  IC50: 1.92 µg/mL
  IC80: 49.6 µg/mL
[18]
  IC50: 0.008 µg/mL
  IC80: 0.043 µg/mL
[19]
  IC50: 1.01 µg/mL
  IC80: 24.5 µg/mL
[20]
  IC50: 0.127 µg/mL
  IC80: 18.1 µg/mL
[21]
  IC50: 0.006 µg/mL
  IC80: 0.026 µg/mL
[22]
  IC50: > 50 µg/mL
  IC80: > 50 µg/mL
[23]
  IC50: > 50 µg/mL
  IC80: > 50 µg/mL
[24]
  IC50: 0.008 µg/mL
  IC80: 0.056 µg/mL
[25]
  IC50: 0.029 µg/mL
  IC80: 0.132 µg/mL
[26]
  IC50: 0.347 µg/mL
  IC80: 4.97 µg/mL
[27]
  IC50: 0.009 µg/mL
  IC80: 0.026 µg/mL
[28]
  IC50: > 50 µg/mL
  IC80: > 50 µg/mL
[29]
  IC50: 0.039 µg/mL
  IC80: 0.25 µg/mL
[30]
  IC50: 0.007 µg/mL
  IC80: 0.021 µg/mL
[31]
  IC50: 0.016 µg/mL
  IC80: 0.189 µg/mL
[32]
  IC50: 0.435 µg/mL
  IC80: > 50 µg/mL

## PG9 (antibody)
[15]
  IC50: > 50 µg/mL
  IC80: > 50 µg/mL
[16]
  IC50: > 50 µg/mL
  IC80: > 50 µg/mL
[17]
  IC50: 43.2 µg/mL
  IC80: > 50 µg/mL
[18]
  IC50: 0.027 µg/mL
  IC80: 0.082 µg/mL
[19]
  IC50: 0.503 µg/mL
  IC80: 4.06 µg/mL
[20]
  IC50: 0.166 µg/mL
  IC80: 1.41 µg/mL
[21]
  IC50: 0.026 µg/mL
  IC80: 0.19 µg/mL
[22]
  IC50: > 50 µg/mL
  IC80: > 50 µg/mL
[23]
  IC50: 1.75 µg/mL
  IC80: 6.33 µg/mL
[24]
  IC50: 0.029 µg/mL
  IC80: 0.114 µg/mL
[25]
  IC50: 0.21 µg/mL
  IC80: 0.484 µg/mL
[26]
  IC50: 0.293 µg/mL
  IC80: 1.05 µg/mL
[27]
  IC50: 0.029 µg/mL
  IC80: 0.081 µg/mL
[28]
  IC50: > 50 µg/mL
  IC80: > 50 µg/mL
[29]
  IC50: 0.101 µg/mL
  IC80: 0.25 µg/mL
[30]
  IC50: 0.037 µg/mL
  IC80: 0.124 µg/mL
[31]
  IC50: 0.112 µg/mL
  IC80: 0.323 µg/mL
[32]
  IC50: 4.08 µg/mL
  IC80: > 50 µg/mL

## VRC07 (antibody)
[1]
  IC50 (Titer in TZM.bl cells): 0.213 µg/mL
  IC80 (Titer in TZM.bl cells): 0.609 µg/mL
[2]
  IC50: 0.036 µg/mL
  IC80: 0.152 µg/mL
[3]
  IC50: 0.004 µg/mL
  IC80: 0.016 µg/mL
[4]
  IC50 (Titer in TZM.bl cells): > 50 µg/mL
  IC80 (Titer in TZM.bl cells): > 50 µg/mL
[5]
  IC50: 0.011 µg/mL
  IC80: 0.037 µg/mL
[6]
  IC50 (Titer in TZM.bl cells): 0.064 µg/mL
  IC80 (Titer in TZM.bl cells): 0.181 µg/mL
[7]
  IC50 (Titer in TZM.bl cells): 0.032 µg/mL
  IC80 (Titer in TZM.bl cells): 0.134 µg/mL
[8]
  IC50: 0.128 µg/mL
  IC80: 0.84 µg/mL
[33]
  IC50: 0.448 µg/mL
  IC80: 1.62 µg/mL
[9]
  IC50 (Titer in TZM.bl cells): 0.11 µg/mL
  IC80 (Titer in TZM.bl cells): 0.353 µg/mL
[10]
  IC50 (Titer in TZM.bl cells): > 50 µg/mL
  IC80 (Titer in TZM.bl cells): > 50 µg/mL
[11]
  IC50: 0.06 µg/mL
  IC80: 0.129 µg/mL
[12]
  IC50 (Titer in TZM.bl cells): 2.03 µg/mL
  IC80 (Titer in TZM.bl cells): 8.25 µg/mL
[13]
  IC50 (Titer in TZM.bl cells): 0.81 µg/mL
  IC80 (Titer in TZM.bl cells): 3.17 µg/mL
[14]
  IC50: 0.042 µg/mL
  IC80: 0.142 µg/mL
